T1: N-terminal adhesin domain of CfaE fused to maltose-binding protein (MBP-CfaE-N) (enterotoxigenic Escherichia coli (ETEC), UniProt P25734 23-200)
T1 construct: domain: N-terminal adhesin domain; expressed in SHuffle T7 E. coli and purified on amylose resin; also called recombinant CfaE-N; wild-type CfaE; not shown: donor strand complement included as in Poole et al. 2007
T1 sequence (looked up): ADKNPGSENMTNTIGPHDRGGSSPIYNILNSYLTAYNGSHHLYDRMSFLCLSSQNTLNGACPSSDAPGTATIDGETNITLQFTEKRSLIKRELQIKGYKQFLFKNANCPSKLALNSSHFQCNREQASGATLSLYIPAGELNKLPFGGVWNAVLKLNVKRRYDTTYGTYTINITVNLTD


What was measured:
[1] = biological target: T1, N-terminal adhesin domain of CfaE fused …; assay: ELISA on plate-bound wild-type MBP-CfaE-N, OD405
Protocol: (§1) For binding activity of purified HuMAbs against CfaE, 96-well plates (Nunc) were coated overnight at 4° C. with 2 μg/mL of purified MBP-CfaE-N. Plates were blocked with 1% BSA+0.05% Tween 20 in PBS. Purified HuMabs were diluted in 1×PBS+0.1% Tween 20 and added to plates for 1 hour. Plates were stained with alkaline phosphatase-conjugated goat anti-human IgG Fcγ (Jackson ImmunoResearch Laboratories) (1:1,000) for 1 hour and developed using p-nitrophenyl phosphate (ThermoFisher Scientific).
To define the antibody-binding epitope, putative antibody-antigen interaction models were established based on a previously resolved CfaE structure (PDB ID 2Hb0) and the HuMab antibody sequences using an antibody modeling program, BioLuminate (Schrodinger). This software suite develops models of antibody structures from their sequences, followed by computational docking to identify high-confidence antibody-antigen complex models. Based on these models, the software identified potential residues critical for binding interaction. The effect of these residues on the binding activity of the HuMAbs was analyzed by experimental alanine scanning followed by ELISA. […] The R67A mutation eliminated binding activity of HuMab 68-51 and 68-97 (FIG. 3B), while the Y183A mutation affected binding activity of HuMab 68-51, 68-97, 68-90, 67-102, and 840-53 (FIG. 3E). […] T91A mutation eliminated binding activity of HuMAb 840-53 and reduced binding activities of HuMAbs 68-51, 68-61, 840-53 and 68-48 (FIG. 3C). N127A mutation eliminated binding activity of HuMAb 68-61 and reduced binding of HuMAbs 68-48 and 68-6 (FIG. 3F). All mutations were found on the surface exposed loops of the N-terminal domain of the CfaE (FIG. 3G). No residues involved in the binding of MAb 68-75 to CfaE were identified.

[2] = biological target: T1, N-terminal adhesin domain of CfaE fused …; assay: ELISA on plate-bound MBP-CfaE-N, anti-human IgG Fc-AP, OD405
Excerpt: FIG. 1A is a graph showing concentration-dependent binding of anti-CfaE antibodies as measured by ELISA. IgG bound to immobilized recombinant CfaE-N was detected with an anti-human IgG Fc-chain-specific alkaline phosphatase-conjugated antibody. Error bars represent the range in OD values observed in two independent experiments. The binding curves of the ten anti-CfaE antibodies are superimposed.
as §1

[3] = biological target: T2, MBP-CfaE-N Tyr183Ala mutant (enterotoxigenic Escherichia coli); assay: ELISA on plate-bound MBP-CfaE-N Tyr183Ala mutant, OD405
T2 construct: tag;N-terminal adhesin domain; not in the list MOLECULES; also called Y183A
Protocol: as §1
To define the antibody-binding epitope, putative antibody-antigen interaction models were established based on a previously resolved CfaE structure (PDB ID 2Hb0) and the HuMab antibody sequences using an antibody modeling program, BioLuminate (Schrodinger). This software suite develops models of antibody structures from their sequences, followed by computational docking to identify high-confidence antibody-antigen complex models. Based on these models, the software identified potential residues critical for binding interaction. The effect of these residues on the binding activity of the HuMAbs was analyzed by experimental alanine scanning followed by ELISA. […] The R67A mutation eliminated binding activity of HuMab 68-51 and 68-97 (FIG. 3B), while the Y183A mutation affected binding activity of HuMab 68-51, 68-97, 68-90, 67-102, and 840-53 (FIG. 3E). […]

Row | Binder | EC50 (read off the curve) [1] [µg/mL] | EC50 (read off the curve) [2] [µg/mL] | EC50 (read off the curve) [3] [µg/mL]
1 | anti-CfaE HuMab 68-90 (antibody, human IgG1, V domains shown, also called 068-90) VH: QVQLQQWGAGLLKPSETLSLTCAVYGGSFSAYYWSWIRQPPGKGLEWIGEINHSGNTNYNPSLESRVTISVDTSKNQVSLKQSSVTAADTAVYYCARNWGPNAFDIWGRGTMVTVSS VL: DIQMTQSPSSVSASVGDRVTITCRASQDITSWLVWYQHKPGKAPKLLIYAASSLQSGVPSRFSGSGSGTDFTLTISSLQPEDFATYYCQQANIFPYTFGQGTKLEIK | ~0.03 | ~0.03 | 
2 | anti-CfaE HuMab 68-48 (antibody, human IgG1, V domains shown, also called 068-48) VH: QVQLQQWGAGLLKPSETLSLTCAVYGGSFSGYSWSWIRQSPGKGLEWIGEIYHSGSTNYNPSLKSRVTISGDTSKNQFSLKLSSVTAADTAVYYCARENLQGYYYYGMDVWGQGTTVTVSS VL: AIQLTQSPSSLSASVGDRVTITCRASQGISSSLAWYQQKPGKAPKLLIYDASSLESGVPSRFSGSGSGTDFTLTISSLQPEDFATYYCQQFNSYPRTFGQGTKVEIK | ~0.03 | ~0.03 | ~0.01
3 | anti-CfaE HuMab 68-61 (antibody, human IgG1, V domains shown, also called 068-61) VH: QVQLVQSGAEVKNPGSSVRVSCEASGGTFSSFAISWVRQAPGQGLEWMGRIIPILDIVKYAQRFQGRVTISADKSTSTAYMELSSLRSEGTAVYYCARDDIAGSDFDIWGQGTMVTVSS VL: DIQMTQSPSSLSASVGDRVTITCRASQGISSWLAWYQQKPEKAPKSLIYAASSLQSGVPSRFSGSGSGTDFTLTISSLQPEDFATYYCQQYTSYPYTFGQGTKLEIK | ~0.03 | ~0.03 | ~0.01
